Laboratory results reported in patent CN112574312A (DONGDA BIOTECHNOLOGY SUZHOU CO LTD, dated 2021).

T1: 人源OX40的胞外区与人Fc融合蛋白(OX40-hFc) (human, UniProt P43489 29-214)
T1 construct: extracellular domain; Coated on ELISA plates at 2 μg/mL; not shown: human Fc
T1 sequence (looked up): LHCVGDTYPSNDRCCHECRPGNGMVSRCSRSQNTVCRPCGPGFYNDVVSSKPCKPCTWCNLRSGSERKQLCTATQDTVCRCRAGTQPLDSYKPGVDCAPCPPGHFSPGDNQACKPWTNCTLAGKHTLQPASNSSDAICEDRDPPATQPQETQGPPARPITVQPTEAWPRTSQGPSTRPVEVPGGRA

T2: 人OX40 (Jurkat-OX40细胞) (human, UniProt P43489 29-277)
T2 construct: whole, on cells; also called OX40受体; CD134
T2 sequence (looked up): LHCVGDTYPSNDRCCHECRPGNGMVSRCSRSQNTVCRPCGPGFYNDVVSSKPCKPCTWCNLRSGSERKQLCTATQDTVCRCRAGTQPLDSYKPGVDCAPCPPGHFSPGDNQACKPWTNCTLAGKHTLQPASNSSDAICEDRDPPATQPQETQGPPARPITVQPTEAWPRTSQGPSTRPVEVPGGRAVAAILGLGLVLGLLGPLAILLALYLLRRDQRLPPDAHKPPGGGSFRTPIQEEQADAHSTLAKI

T3: 人源OX40的胞外区与小鼠Fc融合蛋白(OX40-ECD-mFc) (human, UniProt P43489 29-214)
T3 construct: extracellular domain; also called OX40-mFc; not shown: mouse Fc
T3 sequence (looked up): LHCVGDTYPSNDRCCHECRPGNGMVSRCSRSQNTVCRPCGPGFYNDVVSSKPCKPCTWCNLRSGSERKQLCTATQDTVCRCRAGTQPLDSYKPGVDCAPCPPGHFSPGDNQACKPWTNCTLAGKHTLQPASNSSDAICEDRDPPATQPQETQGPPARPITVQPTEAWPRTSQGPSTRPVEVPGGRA

B1: 抗人OX40鼠源抗体15A7 (antibody, V domains shown)
VH: QVQLQQSGPGLAKPSQTLSLTCSVTGYSITSDYWNWIRKFPGNKLEYMGYISYSGSTSYNPSLKSRISITRDTSKNQYYLQLSSVTTEDTATYYCARGGYYYGSSYPYYFDYWGQGTTLTVSS
VL: DIVMTQSTKFMSTTVGDRVSITCKASQNVGTAVAWYQQKPGQSPKLLIYSPSNRYTGVPDRFTGSGSGTDFTLTITNVQSEDLADYFCQQYSSYRTFGGGTKLEIK
notes: Mouse hybridoma antibody purified by Protein A
B2: 抗人OX40鼠源抗体3C9 (antibody, V domains shown)
VH: DVQLQQSGPELVKPGASVRMSCKASGYTFTSYIMHWVKQKPGQGLEWIGYINPYNGGSRYNDKFKVKATLASDKSSSTAYMELSSLTSADSAVYYCARGDYDDGAWFGYWGQGTLVTVSA
VL: EIQMTQAAPSVPVTPGESVSISCKSSQSLLHSNGITYLFWYLQRPGQSPQLLIYRMSNRASGVPDRFSSSGSGTAFTLKISRVEADDVGVYYCGQNLELPVTFGAGTKVELK
notes: as for B1
B3: 抗人OX40人源化抗体1A2 (antibody, V domains shown)
VH: QVTLKESGPTLVKPTQTLTLTCTFSGFSLATSGVAVGWIRQPPGKALEWLAHIWWDDVKRYNPSLQGRLTITKDTSKNQVVLTMTNMDPVDTATYYCARMDWDGLAYWGQGTLVTVSS
VL: EIVLTQSPATLSLSPGERATLSCSVSSSISSSNLHWYQQKPGQAPRPWIYGTSNLATGIPARFSGSGSGTDYTLTISSLEPEDFAVYYCQQYSSYPFTFGGGTKVEIK
notes: expressed in 293 cells; also called hu1A2; 1A2人源化抗体
B4: 抗人OX40鼠源抗体1G4 (antibody, V domains shown)
VH: RVQLVQSGPELKKPGETVKISCKASGYTFTDYSIHWVKQAPGKGLKWMGWINTETGESTYADDFKGRFVFSSEISATTAYLQINSLKNEDTSTYFCAWVPPWYFDVWGAGTTVTVSS
VL: DIVMTQSTTSLSVSLGDRVTINCRTSQDITNYLNWYQQKPDGTIKLLIYYTSMLKSGVPSRFSGSGSGTDYSLTISHLEQDDIATYFCQQGNTPPLTFGAGTKLELK
notes: as for B1
B5: 抗人OX40鼠源抗体1A2 (antibody, IgG1, V domains shown)
VH: EVQLKESGPGIVQPSQSLSLTCTFSGFSLATSGVAVGWIRQPSGKGLEWLAHIWWDDVKRYNPSLQGRLTISKDTASSQVFLKISSVDTADTATYYCARMDWDGLAYWGAGTTVTVSA
VL: EIVLTQSPALMAASPGEKVTITCSVSSSISSSNLHWYQQKSETSPKPWIYGTSNLATGVPVRFSGSGSGTSYSLTISSMEAEDAATYYCQQYSSYPFTFGGGTKLEIK
notes: Mouse hybridoma antibody purified by Protein A; also called 1A2-mIgG1
B6: 抗人OX40鼠源抗体9G7 (antibody, V domains shown)
VH: EVKLVESGGGLVQPGGSLKLSCAASGFTFSDYYMYWVRQTPEKRLEWVAYISNGDISTYYPDTVKGRFTISRDNAKNTLYLQMSRLKSEDTAMYYCARDDGYSAWFAYWGQGTLVTVSA
VL: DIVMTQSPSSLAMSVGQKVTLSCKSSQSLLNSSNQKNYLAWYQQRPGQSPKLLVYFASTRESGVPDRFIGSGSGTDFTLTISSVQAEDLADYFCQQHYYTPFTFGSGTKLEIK
notes: as for B1
B7: 抗人OX40鼠源抗体17C1 (antibody, V domains shown)
VH: DVQLQESGPGLVKPSQSLSLTCTVTGYSITSDYAWNWIRQFPGNKLEWMGYITYSGFTRYNPSLKSRFSITRDTSKNQFFLQLNSVTTEDTATYYCVYPAWFAYWGQGTLVTVSA
VL: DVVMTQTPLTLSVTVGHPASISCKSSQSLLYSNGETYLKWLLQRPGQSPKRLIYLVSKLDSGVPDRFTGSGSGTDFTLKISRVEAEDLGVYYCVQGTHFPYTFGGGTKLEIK
notes: as for B1
B8: 抗人OX40鼠源抗体3F5 (antibody, V domains shown)
VH: EVQLVESGGDLVRPGGSLKLSCAASGFTFGSYAMSWVRQSPEKRLEWVAEISSGGIYTYYADIVTGRFTTSRDNAKNTLYLEMSSLRSEDTAMYYCVRDFDYRFAYWGQGTLVTVSA
VL: DIQMTQTTSSLSASLGDRVTISCKSSQEISGYLAWLQQKPDGTVKRLIYAASSLDVGVPSRFSGSRSGSDYSLTISNLEPEDIATYYCFQYASYPYTFGGGTKLEIK
notes: as for B1
B9: 抗人OX40人源化抗体3C9 (antibody, IgG1, V domains shown)
VH: QVQLVQSGAEVKKPGASVKVSCKASGYTFTSYIMHWVRQAPGQGLEWIGYINPYNGGSRYNDKFKVRATLTSDKSISTAYMELSRLRSDDTAVYYCARGDYDDGAWFGYWGQGTTVTVSS
VL: DIVMTQSPLSLPVTPGEPASISCKSSQSLLHSNGITYLFWYLQKPGQSPQLLIYRMSNRASGVPDRFSSSGSGTDFTLKISRVEAEDVGVYYCGQNLELPVTFGQGTKLEIK
notes: expressed in 293 cells; also called hu3C9; hu3C9-hIgG1
B10: 抗人OX40人源化抗体15A7 (antibody, IgG1, V domains shown)
VH: QVQLQESGPGLVKPSETLSLTCTVSGYSITSDYWNWIRQPPGKGLEYMGYISYSGSTSYNPSLKSRITISRDTSKNQYSLKLSSVTAADTAVYYCARGGYYYGSSYPYYFDYWGQGTLVTVSS
VL: DIQMTQSPSTLSASVGDRVTITCKASQNVGTAVAWYQQKPGKAPKLLIYSPSNRYTGVPSRFSGSGSGTEFTLTISSLQPDDFATYYCQQYSSYRTFGGGTKVEIK
notes: expressed in 293 cells; also called hu15A7; hu15A7-hIgG1
B11: 抗人OX40鼠源抗体3D9 (antibody, V domains shown)
VH: QVQLQESGPGLVAPSQSLSITCTVSGFSLTTYGITWVRQPPGKGLEWLGVIWDDGSTNYHSALISRLSISKNNYKSQVFLTLNSLQTDDTATYYCAKLLPYYFDSWGQGTTLTVSS
VL: DIVMTQSPSSLSASLGDRVTISCRASQDISNYLNWYQQKPNGTVKLLIYYTSRLLSGVPSRFSGSGSGTDYSLTISSLEQEDIATYFCQQGYTLPPTFGGGTKLEIK
notes: as for B1
B12: 抗人OX40人源化抗体3F5 (antibody, IgG1, V domains shown)
VH: EVQLVESGGGLVQPGGSLRLSCAASGFTFGSYAMSWVRQAPGKGLEWVAEISSGGIYTYYADIVTGRFTTSRDNAKNSLYLQMNSLRAEDTAVYYCVRDFDYRFAYWGQGTLVTVSS
VL: DIQMTQSPSSLSASVGDRVTITCKSSQEISGYLAWLQQKPGKAPKRLIYAASSLDVGVPSRFSGSRSGSEYTLTISSLQPEDFATYYCFQYASYPYTFGQGTKLEIK
notes: expressed in 293 cells; also called hu3F5; hu3F5-hIgG1

Tests used:
[1] = molecular target: T1, 人源OX40的胞外区与人Fc融合蛋白(OX40-hFc); assay: ELISA on coated OX40-hFc (Fig. 1)
[2] = molecular target: T2, 人OX40 (Jurkat-OX40细胞); assay: FACS on Jurkat-OX40 cells (Fig. 3)
[3] = molecular target: T3, 人源OX40的胞外区与小鼠Fc融合蛋白(OX40-ECD-mFc); assay: ELISA on OX40-mFc (Fig. 7)
[4] = molecular target: T2, 人OX40 (Jurkat-OX40细胞); assay: FACS on Jurkat-OX40 cells (Fig. 9)

Binder	binding result [1]	binding result [2]	binding result [3]	binding result [4]
B1	binds	binds		
B2	binds	binds		
B3			binds	binds
B4	binds	binds		
B5	binds	binds		
B6	binds	binds		
B7	binds	binds		
B8	binds	binds		
B9			binds	binds
B10			binds	binds
B11	binds	binds		
B12			binds	binds
